The series can be described thus: yeast display, Sf9 membrane polyspecificity reagent, FACS + sequencing; frameworks hold sequencing errors. Summed up: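 After 36–48 hours of galactose induction, yeast (Saccharomyces cerevisiae BJ5465) displaying a synthetic nanobody library were stained at 4 °C for 1 hour with 10% biotinylated, detergent-solubilized Sf9 membrane reagent. Streptavidin microbeads enriched the stained cells before FACS sorting into low and high (top ~1%) gates on anti-HA and streptavidin fluorescence. Each clone's polyreactivity label reflects its gate of origin.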
As to “HVQLVESGGGLVQAGGSLRLSCAASGLTFTRYTMGWSRQAPGKERELVAAITSSGGSTYYADSVKGRFTISRDNAKNTVYLQMNSLKPEDTAVYDCAARTGYGYGARRTLKSRYDYWGQGTQVTVSS”, the “polyreactivity (PSR sort gate)” value was “high polyreactivity”.
Regarding “HVQLVESGGGLVQAGGSLRLSCAASGRIFDWNAMGWYRPAPGKEWELVAAISSRSGGTYYADSVKGRFTISRDNAKNTVYFQMNSLKPEDTAVYYCAADYYWYGRFEYGYWGQGTQVTVSS”, the “polyreactivity (PSR sort gate)” value is listed as “low polyreactivity”.
As for “HVQLVESGGGLVQAGGSLRLSCAASGRIFGYNAMGWYRQAPGKERELVAAISYSGGSTYYADSVKGRFTISRDNAKNTVYLQMYSLKPEDTAVYYGAARGHYASLFGGYFHYNYWGQGPQVTVSS”, the entry is “high polyreactivity”; as for “HVQLVESGGGLVQAGGSLRLSCAASGRIFYYNAMGWYRQAPGKERELVAVITWRGGTTYYADSVKGRFTTSRDTAKNTVYLQMNSLKPEDTAVYYCAADTGAFDGYYRQPRIRFDYWGQGTQVTVSS”, “high polyreactivity”; as for “HVQLVESGGGLVQAGGSLRLSCAASGRTFGAYAMGWYRQAPGKERELVAAISKSGGRTYYADSVKGRFTISRDNAKNTVYLQMNSLKPEDSAVYYCNARGFRGEYDYWGQGTQVTVSS”, “high polyreactivity”.
Consider “HVQLVESGGGLVQAGGSLRLSCAASGRTFGIYAMGWYRHAPGKQRELVAAISKIGTRTYYADSVKGRFTISRDNAKNTVYLQMNSLNPEDTAVYYCAAYPVDAVYQAYRYPYYDEMDYWGQGTQVTVSS”, for which the “polyreactivity (PSR sort gate)” value is given as “low polyreactivity”.
Under “HVQLVESGGGLVQAGGSLRLSCAASGRTFPYYAMGWYRQAPGKERELVAGITSNAGSTYYADSVKGRFTISRDNAKNTVYLLMNSLKPEDTAVYYCAKTKAGRWTTFKFGYWGQGTQVTVSS” stands “high polyreactivity”; under “HVQLVESGGGLVQAGGSLRLSCAASGRTFVNYTMGWYRQAPGKVRELVAAIRYRDGSTYYADSVKGRFTISRDNAKKTVYLQMNSLKPEDTAVYYCNNRITQVGDYIYDYWRQGTQVTVSS”, “low polyreactivity”.
Under “HVQLVESGGGLVQAGGSLRLSCAASGSIFAKNAMGWYREAPGKERELVAGIDFSGGSTYYADSVKGRFTISRDNAKNTVYLQMNSLKPEDTAVYYCAADWAYKYELDYWGQGTQVTVSS” stands “low polyreactivity”.
As for “HVQLVESGGGLVQAGGSLRLSCAASGSIFDDYAMGWYRQAPGKERELVAAISSSGTSTYYADSVKGRFTISRDNAKNTVYLQMNSLKPEDTAVYYCAARSAILKSGYLMDYWGQGTQVTVSS”, the entry is “low polyreactivity”.
As for “HVQLVESGGGLVQAGGSLRLSCAASGSIFFVYDMGWYRQAPGKERELVAAITWSGGRTTYADSVKGRFTISRDNAKNTVYLQMNSLKPVDTAVYYCAAGRVRLRILWGKRGWYDYWGQGTQVTVSS”, the “polyreactivity (PSR sort gate)” value is listed as “low polyreactivity”.
With “HVQLVESGGGLVQAGGSLRLSCAASGSIFILYAMGWSRQAPGKERELLASISSSGGRTYYADSVKGRFTISRDNAKNTVYLQMNSLKPEDTAVYYCNAVGRYWSYGTIYDYWGHGTQVTVSS”, the “polyreactivity (PSR sort gate)” value is “high polyreactivity”.
As for “HVQLVESGGGLVQAGGSLRLSCAASGSIFVPYTMGWSRQAPGKERELVAAINSSDDSKFYADSVKGRFTISRDNAKNPVYLQMNSLKPEDTAVYYCAASYYYTIGPYFRKFDWGQGTQVTVSS”, the “polyreactivity (PSR sort gate)” value was “low polyreactivity”.
As to “HVQLVESGGGLVQAGGSLRLSCAASGSIFVSYGMGWYRQAPGKEWELVASISNSAGSTYYADSVKGRFTISRDNAQNTVYLQMNSLKPDDTAVYSCAADYWVWAYGGYDAYNYWGQGTQVTVSS”, the “polyreactivity (PSR sort gate)” value was “high polyreactivity”.
Consider “HVQLVESGGGLVQAGGSLRLSCAASGSILDGKALGWYRQAPGKERERVAGISESDGSTNYADSVKGRFTISRDNAKNTVYLQMNSLKPEDTAVSYCAADIWTSGDIPYDYWGQGTQVTVSS”, for which the “polyreactivity (PSR sort gate)” value is given as “low polyreactivity”.
Under “HVQLVESGGGLVQAGGSLRLSCAASGSTFSYYAMGWYRQAPGKERELVAAITSGGRTKYADSVKGRFTISRDNAKNTVYLQMNSLKPEDTAVYYCAKRIEKFSGSLAGRWYDYWGQGTQVTVSS” stands “high polyreactivity”.
As for “HVQLVESGGGLVQAGGSLRLSCAASGSTFTVNAMGWYRQAPGKERELVAAISASGGRTYYADSVKGRFTISRDNAKNTVYLQMNSLKPEDTAVYYCAARFRTWGNREAGYYWGQGTQVTVSS”, the “polyreactivity (PSR sort gate)” value was “high polyreactivity”.
For “HVQLVESGGGLVQAGGSLRLSCAASGSTFYNYAMGWYRQAPGNERELVAGISSGVTTNYADSVKGRYTISRDNAKNTVYLQMNSLKPEDTAVYYCAAVHSWYARYLGGEDYDYWGQGTQVTVSS”, the “polyreactivity (PSR sort gate)” value is on record as “low polyreactivity”.
As to “HVQLVESGGGLVQAGGSLRLSCAASGYTFWDYAMGWYRQAPGKEREFVAGISFSDGGTYYADSVKGRFTISRDNAKNTVYLQMNSLKPEDTAVYYCAATYPYSWVYSGYYYWGQGTQVTVSS”, the “polyreactivity (PSR sort gate)” value is listed as “low polyreactivity”.
For the sequence “HVQLVESGGGLVQAGGSLRLSCAASVITFVPYAMGWYRQATGKERELVAAISWSGGSTYYADSVKGRFTISRDNAKNTVYLQMNSLKPEDTAVYYCAAQHDVRYDYWGQGTQVTVSS”, the “polyreactivity (PSR sort gate)” value was “low polyreactivity”.
As for “HVQLVESGGGLVQAGGSLRLSCASSGSIFWANAMGWYRQAPGKERELVATITSGGRTYYADSVKGRFTISRDNAKNTVYLQMNSLKPEDTAVYYCARVPPQYRWGRRLVYVHVDYWGQGTQVTVSS”, the entry is “low polyreactivity”; as for “HVQLVESGGGLVQAGGSLRVSCAASGRTFWSYTMGWYRQAPGKERELVASITYRGGSTYYADSVKGRFTISRDNAKNTVYLQMNSQKPEDTAVYYCNARYKRYSYDYWGQGTQVTVTS”, “high polyreactivity”.
Consider “HVQLVESGGGLVQAGGSRLLSCAASGFTIYANAMGWYSQAPGKERELVAAITWRGGSTYYADSVKVRFTISRDNAKNTVYLQMNSLKPADTAVYYCNALKGRPVRSYLASPSYRYEYWGQGTQVTVSS”, for which the “polyreactivity (PSR sort gate)” value is “high polyreactivity”.
“HVQLVESGGRLVQAGGSLRLSCAASGIIFGYYAMGWYRQAPGNERELVAAIDWTGGNTYYADSVKGRFRISRDIAKNTVYLQMNSLKPEDTAVYYCAADYYSQEDYWGQGTQVTVSS”: the “polyreactivity (PSR sort gate)” value is recorded as “low polyreactivity”.
“HVQLVESGGRLVQAGGSLRLSCAASGSIFVPNAMGWYRQAPGKERELVATISWSGGSTYADCVKGRFTISRDNAKNTVYLQMKSLKPEDTAVYYCNARRYDPGSRYDYWGQGTQVTVSS”: the “polyreactivity (PSR sort gate)” value is recorded as “low polyreactivity”.
Under “HVQPQESGGGLVQAGGSLRLSCAASGTISADYKMGWYRQAPGKEREFVAANAFGAFTNYADSVKGRFTISRDIAKNTVYLQMNSLKPEDTAVYYCAADLYYYAYDYWGQGTQVTVSS” stands “high polyreactivity”; under “KCQLVDSGGGLVQAGGSLRLSCAASGSIFYVKAMGWYRQAPGKEREFVADITYTGGSTYYADSVNGRFTISRDNAKNTVYLQMNSLKPEDTAVYYCAADLYTTYVAIYDYWGQGTQVTVSS”, “low polyreactivity”.
For the sequence “KVQLGVSGGGLVQAGGSLRLSCASSGFIFRYYAMGWSRQAPGKERELVAGISSGGSTYYADSVKGRFTISRDNAKNTVYLKMNSLKPEDTAVYYCNAVYSSGVDGSEGFDYWGQGTQVTVSS”, the “polyreactivity (PSR sort gate)” value is recorded as “low polyreactivity”.
Under “KVQLLYSAGGLVHAGGSLRLSCAASGNIFRSYAMGWYRQAPGKERELVAAISSRGGSTYYADTVKVRFTISRDNAMNTVYLQMNSLKPEDTAVYYCNAPSTQQGPKYDYWGQGTQVTVSS” stands “low polyreactivity”; under “KVQLQESDGALVQAGGSLRLSCAASGSISPQYYMGWYRQAPGKEREFVAISKGTTTYYADSVKGRLTISRVNAKNTVYLQMNSLKPEDTAVYCCAAGRWLQKVPAYWDQGTQVTVSS”, “low polyreactivity”.
In the case of “KVQLVESGGGLVQAGGRLRLSCAASGGTFVINVMGWYRQAPGKERELVAAISWNGDSTYYADSVKGRFTISRDNAKNTVYLQMNSLKPEDTAVYYCATDTWRVYYAYWQFGVWELGYWGQGTQVTVSS”, the “polyreactivity (PSR sort gate)” value is recorded as “low polyreactivity”.
As for “KVQLVESGGGLVQAGGSLRFSCAPSGSIFSGNTMGWYRQAPGKEREMVAAITRSGDTTYYADSVKGRFTISRDYAKNTVYLQMNSLKPEDTAFYYCAAALPRYRSRAIRVEFWGQGSQVTVSS”, the entry is “high polyreactivity”.
In the case of “KVQLVESGGGLVQAGGSLRISCAASGRICWGYVMGWYRQAPGKERELVAAISSGGDTHYADSVKGRFTISRDNAKNTVYLQMNSLKPEDTGVYYCAARPNFTPYEYGYWGQGTQVTVSS”, the “polyreactivity (PSR sort gate)” value is “low polyreactivity”.
As for “KVQLVESGGGLVQAGGSLRISCAASGSTLYRYAMGWYRQAPGKERELVAAISSSGGSTYYADSVKGRFTISRDNAKNTVYLQMNSLKPEDTAVYYCARVAPASGVRWYYYWGQGTQVTVSS”, the entry is “high polyreactivity”; as for “KVQLVESGGGLVQAGGSLRLSCAASGFTFRSYAMGWYRQAPGKERDFVAAITINGGSTYYADSVKGRFTISRDNAKNTVYLQMNSLKPEDTAVYYCAAGTLYRIRGYPLWQYDYWGQGTQVTVSS”, “high polyreactivity”; as for “KVQLVESGGGLVQAGGSLRLSCAASGGTFYRYAMGWYRQAPGKERELVAAITSGSSTYYADSVKGRFTISRDNAKNTVYLQMNSLKPEDTAVYYCAAARYSRLSRTRPGKYGYWGQGTQVTVSS”, “low polyreactivity”.
As for “KVQLVESGGGLVQAGGSLRLSCAASGNIFIPYAMGWYRQAPGKEREFVAVISTRGGSTYYADSLKGRFTISRDNAKNTVYLQMNSLKPEYTAVYYCAAGALGPRIKGWWFRRSFFYWGQGTQVTVSS”, the “polyreactivity (PSR sort gate)” value is “high polyreactivity”.
Under “KVQLVESGGGLVQAGGSLRLSCAASGRIFVGYAMGWYRQAPGKERELVAAINRSGSSTYYADSVKGRFTISRYNAKNTVYLQMNSLKPEDTAVYYCNARSGKRYGPRYDYWGQGTQVNVSS” stands “high polyreactivity”; under “KVQLVESGGGLVQAGGSLRLSCAASGSIFPSYVMGWYRQAPGKERELVAAITKSTGTTYYADSVKGRFTISRDNAKNTVYLQMNSLKPEDTAVYYCNAPYWFSPGYGGFEFGYDYWGQGTQVTVSS”, “low polyreactivity”.
Under “KVQLVESGGGLVQAGGSLRLSCAASGSIISGNAMGWYRQAPGKERELVAAISRSGGRTYYADSVKGRFTISRDNAKNTVYLQMNSLKPEDTAVYFCAAGRSLRGDYWGQGTQVTVSS” stands “high polyreactivity”.

For the origin of these results see the nanobody polyreactivity screen of Harvey et al. (2022).
